According to patent US20240226163A1 (Regeneron, published 2024):

Tests used:
[1] = target: HLA-A*02:01 presenting CARD8 170-178 peptide (…) (human); experiment: cell-based or functional assay
[2] = target: HLA-A*02:01 presenting MRPL37 334-342 peptide (…) (human); experiment: cell-based or functional assay
[3] = target: HLA-A*02:01 presenting PCDHGC3 337-345 peptide (…) (human); experiment: cell-based or functional assay
[4] = target: HLA-A*02:01 presenting FN1 2182-2190 peptide (…) (human); experiment: cell-based or functional assay
[5] = target: HLA-A*02:01 presenting AOX1 795-803 peptide (…) (human); experiment: cell-based or functional assay
[6] = target: HLA-A*02:01 presenting MAGE-A4 286-294 peptide (…) (human); experiment: cell-based or functional assay
[7] = target: HLA-A*02:01 presenting SMIM11A 4-12 peptide (…) (human); experiment: cell-based or functional assay
[8] = target: HLA-A*02:01 presenting PSME2 145-153 peptide (…) (human); experiment: cell-based or functional assay
[9] = target: HLA-A*02:01 presenting PLEKHH2 790-798 peptide (…) (human); experiment: cell-based or functional assay
[10] = target: HLA-A*02:01 presenting CNOT1 1965-1973 peptide (…) (human); experiment: cell-based or functional assay
[11] = target: HLA-A*02:01 presenting RABGAP1L 408-416 peptide (…) (human); experiment: cell-based or functional assay
[12] = target: HLA-A*02:01 presenting SHTN1 198-206 peptide (…) (human); experiment: cell-based or functional assay
[13] = target: HLA-A*02:01 presenting NBAS 2063-2071 peptide (…) (human); experiment: cell-based or functional assay
[14] = target: HLA-A*02:01 presenting MAGE-A4 286-294 peptide (…) (human); experiment: cell-based or functional assay; remark: listed apart in the source
[15] = target: T1, HLA-A*02:01 presenting HEATR5A 1925-1933 peptide (…) (human); experiment: flow cytometry, peptide-pulsed T2 cells;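 further: ratio of peak mean fluorescence intensity across a 12-point threefold antibody dilution series to the MFI with secondary antibody only, live-gated cells by flow cytometry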
T1 construct: On peptide-pulsed T2 cells
Experimental: (§1) Samples were run on an Intellicyt iQue flow cytometer (Intellicyt) and results were analyzed using Forecyte analysis software (Intellicyte) to calculate the mean fluorescent intensity (MFI) after gating for live cells. MFI values were plotted in Graphpad Prism using a four-parameter logistic equation over a 12-point response curve to calculate EC₅₀ values. The secondary antibody alone (i.e. no primary antibody) for each dose-response curve is also included in the analysis as a continuation of the three-fold serial dilution and is represented as the lowest dose. The signal to noise (S/N) was determined by taking the ratio of the highest MFI on the dose response curve to the MFI in the secondary alone wells.

[16] = target: T2, HLA-A*02:01 presenting CARD8 170-178 peptide (…) (human); experiment: flow cytometry, peptide-pulsed T2 cells;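 further: ratio of peak mean fluorescence intensity across a 12-point threefold antibody dilution series to the MFI with secondary antibody only, live-gated cells by flow cytometry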
T2 construct: On peptide-pulsed T2 cells; also called T2 Pulsed CARD8 170-178
Experimental: as §1

[17] = target: T3, HLA-A*02:01 presenting MRPL37 334-342 peptide (…) (human); experiment: flow cytometry, peptide-pulsed T2 cells;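 further: ratio of peak mean fluorescence intensity across a 12-point threefold antibody dilution series to the MFI with secondary antibody only, live-gated cells by flow cytometry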
T3 construct: On peptide-pulsed T2 cells; also called T2 Pulsed MRPL37 334-342
Experimental: as §1

[18] = target: T4, HLA-A*02:01 presenting TEP1 2156-2164 peptide (…) (human); experiment: flow cytometry, peptide-pulsed T2 cells;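 further: ratio of peak mean fluorescence intensity across a 12-point threefold antibody dilution series to the MFI with secondary antibody only, live-gated cells by flow cytometry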
T4 construct: On peptide-pulsed T2 cells; also called T2 Pulsed TEP1 2156-2164
Experimental: as §1

[19] = target: T5, HLA-A*02:01 presenting PCDHGC3 337-345 peptide (…) (human); experiment: flow cytometry, peptide-pulsed T2 cells
T5 construct: On peptide-pulsed T2 cells; also called T2 Pulsed PCDHGC3 337-345
Experimental: as §1

[20] = target: T6, HLA-A*02:01 presenting FN1 2182-2190 peptide (…) (human); experiment: flow cytometry, peptide-pulsed T2 cells
T6 construct: On peptide-pulsed T2 cells; also called T2 Pulsed FN1 2182-2190
Experimental: as §1

[21] = target: T7, HLA-A*02:01 presenting AOX1 795-803 peptide (…) (human); experiment: flow cytometry, peptide-pulsed T2 cells
T7 construct: On peptide-pulsed T2 cells; also called T2 Pulsed AOX1 795-803
Experimental: as §1

[22] = target: T8, HLA-A*02:01 presenting MAGE-A4 286-294 peptide (…) (human); experiment: flow cytometry, peptide-pulsed T2 cells
T8 construct: On peptide-pulsed T2 cells
Experimental: as §1

[23] = target: T9, HLA-A*02:01 presenting SMIM11A 4-12 peptide (…) (human); experiment: flow cytometry, peptide-pulsed T2 cells
T9 construct: On peptide-pulsed T2 cells; also called T2 Pulsed SMIM11A 4-12
Experimental: as §1

[24] = target: T10, HLA-A*02:01 presenting PSME2 145-153 peptide (…) (human); experiment: flow cytometry, peptide-pulsed T2 cells
T10 construct: On peptide-pulsed T2 cells; also called T2 Pulsed PSME2 145-153
Experimental: as §1

[25] = target: T11, HLA-A*02:01 presenting PLEKHH2 790-798 peptide (…) (human); experiment: flow cytometry, peptide-pulsed T2 cells
T11 construct: On peptide-pulsed T2 cells; also called T2 Pulsed PLEKHH2 790-798
Experimental: as §1

[26] = target: T12, HLA-A*02:01 presenting CNOT1 1965-1973 peptide (…) (human); experiment: flow cytometry, peptide-pulsed T2 cells
T12 construct: On peptide-pulsed T2 cells; also called T2 Pulsed CNOT1 1965-1973
Experimental: as §1

[27] = target: T13, HLA-A*02:01 presenting RABGAP1L 408-416 peptide (…) (human); experiment: flow cytometry, peptide-pulsed T2 cells
T13 construct: On peptide-pulsed T2 cells; also called T2 Pulsed RABGAP1L 408-416
Experimental: as §1

[28] = target: T14, HLA-A*02:01 presenting SHTN1 198-206 peptide (…) (human); experiment: flow cytometry, peptide-pulsed T2 cells
T14 construct: On peptide-pulsed T2 cells; also called T2 Pulsed SHTN1 198-206
Experimental: as §1

[29] = target: T15, HLA-A*02:01 presenting NBAS 2063-2071 peptide (…) (human); experiment: flow cytometry, peptide-pulsed T2 cells
T15 construct: On peptide-pulsed T2 cells; also called T2 Pulsed NBAS 2063-2071
Experimental: as §1

[30] = target: T8, HLA-A*02:01 presenting MAGE-A4 286-294 …; experiment: cell-based or functional assay; remark: listed apart in the source

- EC50 (M), Jurkat/NF-κB-Luc reporter with pulsed T2 cells [1]: > 2e-08 M
- Fold change, Jurkat/NF-κB-Luc reporter with pulsed T2 cells [1]: 1.8 fold
- EC50 (M), Jurkat/NF-κB-Luc reporter with pulsed T2 cells [2]: > 2e-08 M
- Fold change, Jurkat/NF-κB-Luc reporter with pulsed T2 cells [2]: 1.2 fold
- EC50 (M), Jurkat/NF-κB-Luc reporter with pulsed T2 cells [3]: > 2e-08 M
- Fold change, Jurkat/NF-κB-Luc reporter with pulsed T2 cells [3]: 1 fold
- EC50 (M), Jurkat/NF-κB-Luc reporter with pulsed T2 cells [4]: > 2e-08 M
- Fold change, Jurkat/NF-κB-Luc reporter with pulsed T2 cells [4]: 1 fold
- EC50 (M), Jurkat/NF-κB-Luc reporter with pulsed T2 cells [5]: 3.3e-10 M
- Fold change, Jurkat/NF-κB-Luc reporter with pulsed T2 cells [5]: 40.4 fold
- EC50 (M), Jurkat/NF-κB-Luc reporter with pulsed T2 cells [6]: 3e-10 M
- Fold change, Jurkat/NF-κB-Luc reporter with pulsed T2 cells [6]: 75.3 fold
- EC50 (M), Jurkat/NF-κB-Luc reporter with pulsed T2 cells [7]: > 2e-08 M
- Fold change, Jurkat/NF-κB-Luc reporter with pulsed T2 cells [7]: 1.2 fold
- EC50 (M), Jurkat/NF-κB-Luc reporter with pulsed T2 cells [8]: > 2e-08 M
- Fold change, Jurkat/NF-κB-Luc reporter with pulsed T2 cells [8]: 1 fold
- EC50 (M), Jurkat/NF-κB-Luc reporter with pulsed T2 cells [9]: > 2e-08 M
- Fold change, Jurkat/NF-κB-Luc reporter with pulsed T2 cells [9]: 1.9 fold
- EC50 (M), Jurkat/NF-κB-Luc reporter with pulsed T2 cells [10]: > 2e-08 M
- Fold change, Jurkat/NF-κB-Luc reporter with pulsed T2 cells [10]: 1 fold
- EC50 (M), Jurkat/NF-κB-Luc reporter with pulsed T2 cells [11]: > 2e-08 M
- Fold change, Jurkat/NF-κB-Luc reporter with pulsed T2 cells [11]: 1.1 fold
- EC50 (M), Jurkat/NF-κB-Luc reporter with pulsed T2 cells [12]: 3.5e-09 M
- Fold change, Jurkat/NF-κB-Luc reporter with pulsed T2 cells [12]: 75.3 fold
- EC50 (M), Jurkat/NF-κB-Luc reporter with pulsed T2 cells [13]: > 2e-08 M
- Fold change, Jurkat/NF-κB-Luc reporter with pulsed T2 cells [13]: 1.6 fold
- Fold Activation, NF-κB luciferase, Jurkat/NF-κB Luc + IM-9 [14]: 1.8 fold
- Fold Activation, NF-κB luciferase, Jurkat/NF-κB Luc + U266 [14]: 0.9 fold
- S/N ratio [15]: 1
- S/N ratio [16]: 1
- S/N ratio [17]: 1
- S/N ratio [18]: 1
- S/N ratio [19]: 1
- S/N ratio [20]: 1
- S/N ratio [21]: 110
- S/N ratio [22]: 244
- S/N ratio [23]: 1
- S/N ratio [24]: 1
- S/N ratio [25]: 1
- S/N ratio [26]: 1
- S/N ratio [27]: 1
- S/N ratio [28]: 5
- S/N ratio [29]: 1
- Fold Activation, NF-κB luciferase, Jurkat + IM-9, with 2 nM mAb5705 (anti-CD28) [30]: 1.1 fold
- Fold Activation, NF-κB luciferase, Jurkat + U266, with 2 nM mAb5705 (anti-CD28) [30]: 0.9 fold
B1: bsAb6043 (bispecific antibody, V domains shown)
VH 1: QVQLVESGGGLVKPGGSLRLSCAASGFTFSEYYLTWIRQAPGKGLDWIAYISSSGYNIYYADSVKDRFTISRDNGKNSLFLQMNNLRAEDTAVYFCAREGVTDGMDVWGQGTTVTVSS
VH 2: EVQLVESGGGLVQPGRSLRLSCAASGFTFDDYSMHWVRQAPGKGLEWVSGISWNSGSKGYADSVKGRFTISRDNAKNSLYLQMNSLRAEDTALYYCAKYGSGYGKFYHYGLDVWGQGTTVTVSS
VL: DIQMTQSPSSLSASVGDRVTITCRASQSIDTFLNWYQQKPGKVPKLLIYAASNLESGVPSRFSGSGSGTVFTLTISRLQPEDFATYYCQQSYSIPPITFGQGTRVEIK
notes: Only variable regions are tied to the bispecific; also called MAGE-A4×CD3 (7221G) bispecific antibody
